Source: patent US20140087995A1 (published 2014)
Values belong to the binder of their own block, whether it stands above or below them. Numbered stars: 1 amine (or outer) side, 2 acyl side, 3 side chain; on linkers, the order of the positions; unused ones are H or OH. Bridge positions count the residues as written; N and C are the ends. Side chains are listed from the residue outwards. Ends that are not written are not given here. * marks the point of attachment. C20 diacid = O=C(O)CCCCCCCCCCCCCCCCCCC(=O)*; γGlu = O=C(O)[C@H](CCC(=O)[*:2])N[*:1]

Key:
rat calcitonin receptor [1] = molecular target: T1, rat calcitonin receptor (rat, UniProt P32214 25-516); assay: ratio IC50 rat calcitonin receptor / IC50 rat amylin receptor
T1 construct: whole, on cells; Cell membranes of transiently transfected BHK tk'ts 13 cells (Assay VIII); also called rCTR; rCT
T1 sequence (looked up): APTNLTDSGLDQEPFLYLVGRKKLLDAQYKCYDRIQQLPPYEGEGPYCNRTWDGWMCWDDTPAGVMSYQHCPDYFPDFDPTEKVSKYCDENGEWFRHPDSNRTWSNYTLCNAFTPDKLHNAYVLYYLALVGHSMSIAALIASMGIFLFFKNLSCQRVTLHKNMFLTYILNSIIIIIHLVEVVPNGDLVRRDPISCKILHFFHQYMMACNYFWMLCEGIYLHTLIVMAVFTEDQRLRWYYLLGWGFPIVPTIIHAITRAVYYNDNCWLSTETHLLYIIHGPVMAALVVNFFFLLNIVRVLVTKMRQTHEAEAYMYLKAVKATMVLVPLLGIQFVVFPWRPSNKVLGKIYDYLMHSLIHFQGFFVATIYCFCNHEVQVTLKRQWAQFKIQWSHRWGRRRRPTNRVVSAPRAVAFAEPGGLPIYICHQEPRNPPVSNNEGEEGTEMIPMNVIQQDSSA

[2] = molecular target: T2, human calcitonin receptor (human, UniProt P30988 25-474); assay: ratio IC50 human calcitonin receptor / IC50 human amylin receptor
T2 construct: whole, on cells; Cell membranes of a stably transfected BHK cell line (Assay VII); also called hCTR; hCT
T2 sequence (looked up): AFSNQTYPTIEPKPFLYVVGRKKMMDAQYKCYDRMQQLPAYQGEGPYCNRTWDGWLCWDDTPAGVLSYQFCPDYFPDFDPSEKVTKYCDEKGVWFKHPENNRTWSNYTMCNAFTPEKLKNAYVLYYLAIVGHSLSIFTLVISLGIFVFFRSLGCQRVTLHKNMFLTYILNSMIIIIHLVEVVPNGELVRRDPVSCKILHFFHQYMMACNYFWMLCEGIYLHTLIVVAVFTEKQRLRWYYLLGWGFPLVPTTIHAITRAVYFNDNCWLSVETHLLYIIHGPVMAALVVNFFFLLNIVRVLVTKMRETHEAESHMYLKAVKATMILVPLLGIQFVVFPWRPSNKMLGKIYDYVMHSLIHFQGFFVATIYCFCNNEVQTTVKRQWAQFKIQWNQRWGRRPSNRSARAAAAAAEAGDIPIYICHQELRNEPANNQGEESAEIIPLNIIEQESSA
Method in brief: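 Membranes (35 ng/μL final) + SPA beads, 50 mM Hepes pH 7.4 buffer with 1 mM CaCl2, 5 mM MgCl₂, 0.1% OA, 0.02% Tween20; 120 min, 25° C, shaking; centrifuged, counted; IC₅₀ by one-site binding competition.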

rat calcitonin receptor [3] = molecular target: T1, rat calcitonin receptor; assay: SPA competition vs 125I-calcitonin, membranes with rat CTR (Assay VIII)
[4] = molecular target: T3, rat amylin receptor (rat calcitonin receptor + rat RAMP 3) (rat, UniProt P32214 25-516; Q9JJ73 23-147); assay: SPA competition vs 125I-rat amylin, membranes with rat CTR + rat RAMP3 (Assay VI)
T3 construct: whole, on cells; Cell membranes of transiently transfected BHK tk'ts 13 cells (Assay VI); also called rAmylin-R; rat amylin 3(a) receptor
T3 sequence (looked up) 1: T1 sequence (looked up)
T3 sequence (looked up) 2: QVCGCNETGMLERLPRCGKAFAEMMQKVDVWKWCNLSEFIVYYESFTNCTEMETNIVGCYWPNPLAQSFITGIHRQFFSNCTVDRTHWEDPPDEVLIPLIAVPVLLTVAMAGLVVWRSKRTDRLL

Ratio rCT/rAmylin binding (rat calcitonin receptor [1]): 366 | Ratio hCT/hAmylin binding [2]: 47.5 | IC50 (rat calcitonin receptor [3]): 108 nM | IC50 [4]: 0.295 nM
B1: N^ε1-[(4S)-4-carboxy-4-[[(4S)-4-carboxy-4-(19-carboxynonadecanoylamino)butanoyl]amino]butanoyl]-[Asp14,Arg17,Pro21,Pro27,Asp35]-h-amylin (peptide)
peptide: K([γGlu-γGlu-C20 diacid])CNTATCATQRLADFLRHSSPNFGAIPSSTNVGSDTY-NH2
modifications: disulfide 2-7; N-terminus assumed
SMILES: CC[C@H](C)[C@H](NC(=O)[C@H](C)NC(=O)CNC(=O)[C@H](Cc1ccccc1)NC(=O)[C@H](CC(N)=O)NC(=O)[C@@H]1CCCN1C(=O)[C@H](CO)NC(=O)[C@H](CO)NC(=O)[C@H](Cc1c[nH]cn1)NC(=O)[C@H](CCCNC(=N)N)NC(=O)[C@H](CC(C)C)NC(=O)[C@H](Cc1ccccc1)NC(=O)[C@H](CC(=O)O)NC(=O)[C@H](C)NC(=O)[C@H](CC(C)C)NC(=O)[C@H](CCCNC(=N)N)NC(=O)[C@H](CCC(N)=O)NC(=O)[C@@H](NC(=O)[C@H](C)NC(=O)[C@@H]1CSSC[C@H](NC(=O)[C@@H](N)CCCCNC(=O)CC[C@H](NC(=O)CC[C@H](NC(=O)CCCCCCCCCCCCCCCCCCC(=O)O)C(=O)O)C(=O)O)C(=O)N[C@@H](CC(N)=O)C(=O)N[C@@H]([C@@H](C)O)C(=O)N[C@@H](C)C(=O)N[C@@H]([C@@H](C)O)C(=O)N1)[C@@H](C)O)C(=O)N1CCC[C@H]1C(=O)N[C@@H](CO)C(=O)N[C@@H](CO)C(=O)N[C@H](C(=O)N[C@@H](CC(N)=O)C(=O)N[C@H](C(=O)NCC(=O)N[C@@H](CO)C(=O)N[C@@H](CC(=O)O)C(=O)N[C@H](C(=O)N[C@@H](Cc1ccc(O)cc1)C(N)=O)[C@@H](C)O)C(C)C)[C@@H](C)O
notes: Acylated analogue of human amylin; also called compound 2

Ratio rCT/rAmylin binding (rat calcitonin receptor [1]): 32.4 | Ratio hCT/hAmylin binding [2]: 15.7 | IC50 (rat calcitonin receptor [3]): 60.1 nM | IC50 [4]: 1.86 nM
B2: N{Alpha-1}-[(4S)-4-carboxy-4-(19-carboxynonadecanoylamino)butanoyl]-[Glu14,Arg17,Pro21,Pro27,Lys34]-h-amylin (peptide)
peptide: {C20 diacid-γGlu}-KCNTATCATQRLAEFLRHSSPNFGAIPSSTNVGKNTY-NH2
modifications: disulfide 2-7
SMILES: CC[C@H](C)[C@H](NC(=O)[C@H](C)NC(=O)CNC(=O)[C@H](Cc1ccccc1)NC(=O)[C@H](CC(N)=O)NC(=O)[C@@H]1CCCN1C(=O)[C@H](CO)NC(=O)[C@H](CO)NC(=O)[C@H](Cc1c[nH]cn1)NC(=O)[C@H](CCCNC(=N)N)NC(=O)[C@H](CC(C)C)NC(=O)[C@H](Cc1ccccc1)NC(=O)[C@H](CCC(=O)O)NC(=O)[C@H](C)NC(=O)[C@H](CC(C)C)NC(=O)[C@H](CCCNC(=N)N)NC(=O)[C@H](CCC(N)=O)NC(=O)[C@@H](NC(=O)[C@H](C)NC(=O)[C@@H]1CSSC[C@H](NC(=O)[C@H](CCCCN)NC(=O)CC[C@H](NC(=O)CCCCCCCCCCCCCCCCCCC(=O)O)C(=O)O)C(=O)N[C@@H](CC(N)=O)C(=O)N[C@@H]([C@@H](C)O)C(=O)N[C@@H](C)C(=O)N[C@@H]([C@@H](C)O)C(=O)N1)[C@@H](C)O)C(=O)N1CCC[C@H]1C(=O)N[C@@H](CO)C(=O)N[C@@H](CO)C(=O)N[C@H](C(=O)N[C@@H](CC(N)=O)C(=O)N[C@H](C(=O)NCC(=O)N[C@@H](CCCCN)C(=O)N[C@@H](CC(N)=O)C(=O)N[C@H](C(=O)N[C@@H](Cc1ccc(O)cc1)C(N)=O)[C@@H](C)O)C(C)C)[C@@H](C)O
notes: Acylated analogue of human amylin; also called compound 36
